Here are results for 13 sequences from the DeepSol protein solubility set.

The series is described as follows: soluble on expression in E. coli; label from the status in PepcDB or PDB records.
For the sequence “MGSDKIHHHHHHMGLMDFRPYFRVTVDGKDISGVLAPRLVSLRVTDGAGVQSDTVEIRLSDTNLFQRISEPRAGAEIEVWLGFPLSLSYMGLFVADTIETGGPPDTVTITGTASVNGETTSGKTALTDQKKRSWPEGTTIGAMVEKIASEHGLIAMVSESLRAEALPHIDQIDESDINLLSRIARDFDAIAKPGNGRLIMTRRGESLTASGQPLPVVRVDKSSVTEWRYRNSLRERVGRVIATTQDLEAGQPVEVEAGQGEPALRLRRRFPDKVTARKTAESELKRLGRAGRSLSITMPGNSDIVAEARLSASGFRSYIDGEWLVSRATHILDSGGYRTAITAEPVE”, the “soluble on expression in E. coli” value is listed as “not soluble”. Take “MAAPAQQTTQPGGGKRKGKAQYVLAKRARRCDAGGPRQLEPGLQGILITCNMNERKCVEEAYSLLNEYGDDMYGPEKFTDKDQQPSGSEGEDDDAEAALKKEVGDIKASTEMRLRRFQSVESGANNVVFIRTLGIEPEKLVHHILQDMYKTKKKKTRVILRMLPISGTCKAFLEDMKKYAETFLEPWFKAPNKGTFQIVYKSRNNSHVNREEVIRELAGIVCTLNSENKVDLTNPQYTVVVEIIKAVCCLSVVKDYMLFRKYNLQEVVKSPKDPSQLNSKQGNGKEAKLESADKSDQNNTAEGKNNQQVPENTEELGQTKPTSNPQVVNEGGAKPELASQATEGSKSNENDFS”: the “soluble on expression in E. coli” value is recorded as “not soluble”. As to “MGSDKIHHHHHHMLILRARWWTNMCLICQRIDLIKKEENPYFVKELETGYLVVGDHQYFEGYSLFLAKEHVSELHHLKKETRLRFLEEMSLVQEAVAKAFAAEKMNIELLGNGDAHLHWHLFPRRTGDMNGHGLKGRGPVWWVPFEEMTAETCQAKPDEIKRLVKRLSSEVDKLLEIKE”, the “soluble on expression in E. coli” value is listed as “not soluble”. In the case of “MPGIDKLPIEETLEDSPQTRSLLGVFEEDATAISNYMNQLYQAMHRIYDAQNELSAATHLTSKLLKEYEKQRFPLGGDDEVMSSTLQQFSKVIDELSSCHAVLSTQLADAMMFPITQFKERDLKEILTLKEVFQIASNDHDAAINRYSRLSKKRENDKVKYEVTEDVYTSRKKQHQTMMHYFCALNTLQYKKKIALLEPLLGYMQAQISFFKMGSENLNEQLEEFLANIGTSVQNVRREMDSDIETMQQTIEDLEVASDPLYVPDPDPTKFPVNRNLTRKAGYLNARNKTGLVSSTWDRQFYFTQGGNLMSQARGDVAGGLAMDIDNCSVMAVDCEDRRYCFQITSFDGKKSSILQAESKKDHEEWICTINNISKQIYLSENPEETAARVNQSALEAVTPSPSFQQRHESLRPAAGQSRPPTARTSSSGSLGSESTNLAALSLDSLVAPDTPIQFDIISPVCEDQPGQAKAFGQGGRRTNPFGESGGSTKSETEDSILHQLFIVRFLGSMEVKSDDHPDVVYETMRQILAARAIHNIFRMTESHLLVTCDCLKLIDPQTQVTRLTFPLPCVVLYATHQENKRLFGFVLRTSSGRSESNLSSVCYIFESNNEGEKICDSVGLAKQIALHAELDRRASEKQKEIERVKEKQQKELNKQKQIEKDLEEQSRLIAASSRPNQASSEGQFVVLSSSQSEESDLGEGGKKRESEA”, the “soluble on expression in E. coli” value is “soluble”. Consider “MFWKFLVSGLVGSACSAYHRGPTNVSLALDPPTLSIIMDPSKDIVPIRAVIVGGGYAGSKTAYQLDSMFAVTHIDEKNFYELTNDIIPIITNPWKEDVNPKACRRMMVLHRYYLKRSNVVTGTVIGVDAKQVYLRDGRTVPYDLLFLATGERKPFPFQTRERTISGRVQELKRFNEFLQSCKKVAVVGGGPVGTSLAHDLASTRPDLQVHLFHQRAELLPRLPGVCRRHAQEKLLSNPNLHLHLLTRVTDIDGVVLPSNGDKAASSSSPARHSCAGQLVNPPTSNAAVAESSLTLATTNAPWWRSLLNTVWPRRGVVPDQYSVHYDTLQSKVQQQPSILQQVYYGKRDEVAECGVVQARGVEEGFDYVFALTGDTPRPIQCDELEGRSRKLPNILREHETRDGHYRVSTLMQFLDHPNIFGVGRCTNLPVMRGYGSSDIETRTLFRELNSVISNPTTMFLHSRDGVQLAHMRIPRIHVRLGVDDAVGCTPWSGGMTGVSSVHEFMQDRSYLLREFQKPVFYKQQDQAKVKQRMSQWMEEEITDIVDFSHC”, for which the “soluble on expression in E. coli” value is recorded as “not soluble”.

As for “MAMKDKLKNFFSMEDEEYEYEYIETERESHVEHEQKEKPAYNGNKPAGKQNVVSLQSVQKSSKVVLSEPRVYAEAQEIADHLKNRRADVVNLQRIQHDQAKRIVDFLSGTVYAIGGDIQRIGSDIFLCTPDNVDVSGTISELISEDEHQRWLEHHHHHH”, the “soluble on expression in E. coli” value is “not soluble”. In the case of “TSDDHVPVDITDLLDRAAHDAARIYPDLDVSLVPSPTCIIVGLPAGLRLAVDNAIANAVKHGGATLVQLSAVSSRAGVEIAIDDNGSGVPEGERQVVFERFSRGSTASHSGSGLGLALVAQQAQLHGGTASLENSPLGGARLVLRLPGPS”, the “soluble on expression in E. coli” value was “soluble”.

For the sequence “TCCHGHGHGHDHGHRHAPRPAVAAIGTLAGNAELRWSDLRIEAMDCPTEERLIRDALGRQPAVESLEFNLMQRLLRVQHRFDSVEPLQKLIAGLGMQAVPLDAGENTDGPSQAPA”, the “soluble on expression in E. coli” value is on record as “not soluble”. On to “MAELSNCSKCGRLFVKLSTRDVCESCYQEEERQFERVYAFLRKRENRTATMAQVVEATGVEEKLIIKWIRAGRLQLVHFPNLGYPCDSCGAMIREGRLCAKCLGQLQADLRRAEGKKEKEARSRHATYYTQDHKER”, for which the “soluble on expression in E. coli” value was “not soluble”.

For “MGKKQHQKDKLYLTTSEWKSIGGHKDDTGTRLQRAQFKRLPINHCSLSLLPFEDPVCARSGEIFDLTAIVPYLKKHGKNPCTGKPLVAKDLIHLKFDKGEDGKFRCPVTFRTFTDHSHILAIATSGNVYSHEAVQELNLKRNHLKDLLTDVPFTRADIIDLQDPNHLEKFNMEQFLHVKLDLKTSEEIKKEKDAMKDPKFYIRRMNNACKSVLDQLDKEYVPKKSSTETDETADEINAAHYSQGKVAAGFTSTVMAPVTSNKAAVLDNDTVRYSRVKKNAFVRLVTNFGPLNLELFAPKVPKACENFITHCSNGYYNNTKFHRLIKNFMLQGGDPTGTGHGGESIWDKPFSDEFISGFSHDARGVLSMANKGSNTNGSQFFITFRPCKYLDRKHTIFGRLVGGQDTLTTIEKLETEEGTDVPMVSVVIMRAEVFVDPFEEAEKEVQAERAEILKKTSKDAASLANKKAKETATKPEAVGTGVGKYMKSAAAVNKRQGKMEDVPLEAAKKTKFARAGLGDFSKW”, the “soluble on expression in E. coli” value was “not soluble”. As for “MNYATTPTAFVESKLNSMPGDALGYLRRLDQRWQALCQGDLPPIAEVAQKVNTNLGEADFDAVICGGTLGILLAASLQIRGWQVVVIERGKLQGRAQEWNISRQELQTFVELELLTSEELETAIASEYNPGRIAFHGGQEFWIKNVLNVGIDPIYLLEKLKQKFLQAGGKLLEHSAFQKAIIHSDGVAISYQHDGENQVERKLTSRLLIDAMGHGSPLVNQARQGEIPDGVCLVVGSCAQGYSDNETGDLIATTTGITNHCQYFWEAFPARDGRTTYLFTYVDVHPERISLEFFFQEYFRLLPEYQKINLDQLQWQRFLSGFFPAYKSSPLHFSWGRVLAVGDSAGSQSPVSFGGFGAMVRHLKRLTNAIGEALAGDYLAAEDLALLQPYQPNIGVTWLFQQTMGVKVGQTADPEQINRLMNAVFAVMDRQGQEVMEPFLQDVIQWSGLTQTLPRVNPLIVLPLLPQIGLPALMEWLGHYANLAGYSLTYPLAKNLLFTNPSFEQKRRLEAWYYGSGYDFHH”, the entry is “not soluble”. “MFIDTLIEKIREKDNPSVVGLDPKIEYVPSFIKEDMYKKYGKNLKAVAEAILLFNKYIIDAVYDIVPAVKPQLAYYEMYGLEGMRVFYETCKYAKEKGLLVIADGKRNDIGSTAQCYSAAYLGKTDIDEGISEAVFDVDALTVNPYLGVDGIKPFIDDCVKYNKGIFVLVKTSNKSSGEIQDILTQEGRSIYEIVAEYVESWGENKKGKYGYSCVGAVVGATYPNLAKILRKILKNSYILVPGYGAQGGTARDVAHCFNYDGLGAIVNASRSIMCAYKSEQWKNVYSEEKFYEASRAEAIRMRDDINSALRDRK”: the “soluble on expression in E. coli” value is “not soluble”. In the case of “SNAMLNTLIVGASGYAGAELVTYVNRHPHMNITALTVSAQSNDAGKLISDLHPQLKGIVELPLQPMSDISEFSPGVDVVFLATAHEVSHDLAPQFLEAGCVVFDLSGAFRVNDATFYEKYYGFTHQYPELLEQAAYGLAEWCGNKLKEANLIAVPGCYPTAAQLALKPLIDADLLDLNQWPVINATSGVSGAGRKAAISNSFCEVSLQPYGVFTHRHQPEIATHLGADVIFTPHLGNFPRGILETITCRLKSGVTQAQVAQALQQAYAHKPLVRLYDKGVPALKNVVGLPFCDIGFAVQGEHLIIVATEDNLLKGAAAQAVQCANIRFGYAETQSLI”, the “soluble on expression in E. coli” value is “soluble”.
